Test results reported in patent US20120190039A1 (MOUNT SINAI HOSPITAL, published 2012).

Experiments:
[1] = target: B-RAF_L487R (human B-RAF kinase domain, residues 448-723) (human) (UniProt P15056); experiment: analytical ultracentrifugation, equilibrium sedimentation, self-association
[2] = target: B-RAF_L487R/E558K (human B-RAF kinase domain, residues 448-723) (human) (UniProt P15056); experiment: as above
[3] = target: B-RAF_R481H (human B-RAF kinase domain, residues 448-723) (human) (UniProt P15056); experiment: as above
[4] = target: MEK (overexpressed in S2 cells) (UniProt Q24324 1-396); experiment: co-immunoprecipitation from S2 cells
MEK (overexpressed in S2 cells), sequence (Q24324 whole entry): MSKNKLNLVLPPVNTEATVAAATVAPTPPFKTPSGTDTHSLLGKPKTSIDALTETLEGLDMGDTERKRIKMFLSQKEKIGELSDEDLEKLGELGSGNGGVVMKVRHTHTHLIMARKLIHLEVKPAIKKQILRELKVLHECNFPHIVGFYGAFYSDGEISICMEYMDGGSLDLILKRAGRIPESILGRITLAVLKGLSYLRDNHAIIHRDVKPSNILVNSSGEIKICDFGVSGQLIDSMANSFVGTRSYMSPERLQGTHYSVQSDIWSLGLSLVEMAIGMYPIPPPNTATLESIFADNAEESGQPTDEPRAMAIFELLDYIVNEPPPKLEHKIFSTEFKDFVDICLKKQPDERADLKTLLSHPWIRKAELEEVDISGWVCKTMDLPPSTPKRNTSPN
Description: S2 cells were maintained in serum-free insect cell medium (Sigma) at 27° C. Cells were seeded at a density of 1.75×10⁶ cells/ml 24 h prior to transfection. Between 10 to 300 ng (or up to 900 ng for KSR_R732H) of DNA was transfected per construct using Effectene (Qiagen). dsRNAs were produced and used in RNAi experiments as described (Roy, F., Laberge, G., Douziech, M., Ferland-McCollough, D. & Therrien, M. KSR is a scaffold required for activation of the ERK/MAPK module. Genes Dev 16, 427-38 (2002)). Protein expression was induced by adding CuSO₄ (0.7 mM) 36 h before harvesting the cells. For FRB/FKBP-mediated dimer formation, rapamycin (Sigma) was added ([…]) to the medium 2 h prior to harvesting the cells. Lysates, immunoprecipitations, western blot procedures and antibodies were essentially as previously described (Douziech, M., Sahmi, M., Laberge, G. & Therrien, M. A, KSR/CNK complex mediated by HYP, a novel SAM domain-containing protein, regulates RAS-dependent RAF activation in Drosophila, Genes Dev, 20, 807-19 (2006)).

## B-RAF_L487R (human B-RAF kinase domain, residues 448-723) (from UniProt P15056 448-723) (enzyme)
[1]
  average molecular weight (global self association fit): 48600 Da
  ratio of the observed average MW to the theoretical MW of the monomer: 1.5

## B-RAF_L487R/E558K (human B-RAF kinase domain, residues 448-723) (from UniProt P15056 448-723) (enzyme)
[2]
  average molecular weight (global self association fit): 55500 Da
  ratio of the observed average MW to the theoretical MW of the monomer: 1.8

## B-RAF_R481H (human B-RAF kinase domain, residues 448-723) (from UniProt P15056 448-723) (enzyme)
[3]
  average molecular weight (global self association fit): 34500 Da
  ratio of the observed average MW to the theoretical MW of the monomer: 1.1

B1: KSR-RAF chimera-A (KSR 1-665 fused to RAF 417-739, K455M) (other)
chain: MSSNNNAPASAPDTGSTNANDPISGSLSVDSNLVIIQDMIDLSANHLEGLRTQCAISSTLTQQEIRCLESKLVRYFSELLLAKMRLNERIPANGLVPHTTGNELRQWLRVVGLSQGTLTACLARLTTLEQSLRLSDEEIRQLLADSPSQREEEELRRLTRAMQNLRKCMESLESGTAASNNDPEQWHWDSWDRPTHIHRGSVGNIGLGNNSTASPRTHHRQHGVKGKNSALANSTNFKSGRQSPSATEELNSTQGSQLTLTLTPSPPNSPFTPSSGLSSSLNGTPQRSRGTPPPARKHQTLLSQSHVQVDGEQLARNRLPTDPSPDSHSSTSSDIFVDPNTNASSGGSSSNVLMVPCSPGVGHVGMGHAIKHRFTKALGFMATCTLCQKQVFHRWMKCTDCKYICHKSCAPHVPPSCGLPREYVDEFRHIKEQGGYASLPHVHGAAKGSPLVKKSTLGKPLHQQHGDSSSPSSSCTSSTPSSPALFQQRERELDQAGSSSSANLLPTPSLGKHQPSQFNFPNVTVTSSGGSGGVSLISNEPVPEQFPTAPATANGGLDSLVSSSNGHMSSLIGSQTSNASTAATLTGSLVNSTTTTSTCSFFPRKLSTAGVDKRTPFTSEYTDTHKSNDSDKTVSLSGSASTDSDRTPVRVDSTEDGDSGQWRQNSSEENWNILAEEILIGPRIGSGSFGTVYRAHWHGPVAVMTLNVKTPSPAQLQAFKNEVAMLKKTRHCNILLFMGCVSKPSLAIVTQWCEGSSLYKHVHVSETKFKLNTLIDIGRQVAQGMDYLHAKNIIHRDLKSNNIFLHEDLSVKIGDFGLATAKTRWSGEKQANQPTGSILWMAPEVIRMQELNPYSFQSDVYAFGIVMYELLAECLPYGHISNKDQILFMVGRGLLRPDMSQVRSDAPQALKRLAEDCIKYTPKDRPLFRPLLNMLENMLRTLPKIHRSASEPNLTQSQLQNDEFLYLPSPKTPVNFNNFQFFGSAGNI
[4]
  binding result: no binding
